Experiment: yeast display, Sf9 membrane polyspecificity reagent, FACS + sequencing; frameworks hold sequencing errors
In short: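 Nanobodies from a synthetic yeast display library (Saccharomyces cerevisiae BJ5465), induced 36–48 hours with galactose, were stained 1 hour at 4 °C with 10% biotinylated, detergent-solubilized Sf9 membrane reagent, enriched on streptavidin microbeads, then FACS-sorted. Anti-HA (expression) and streptavidin (reagent binding) fluorescence set low and high (top ~1%) gates. Polyreactivity labels come from the gate of origin. Genes were colony-PCR amplified, MiSeq 2 × 250 sequenced and filtered by CDR length.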

## QVQLVESGGGLVQAGGSLRLSCAASGRTFLGYAMGWYRQAPGKERELVAAISSSGGSTYYADSVKGRVTISRDNAKNTVYFQMNCLKPEDTAVYYCAKRKRATGASGHGFGYWGQGTQVTVSS
  polyreactivity (PSR sort gate): high polyreactivity

## QVQLVESGGGIVQAGGSLRLSCAASGRILGANDMGWYRQAPGTERELVAAITSGGRTYYADSVKGRFTISRDNAKNTVYLQMNCLKPEDTAVYYCAVGGWDESVGKGYDYWGQGTQVTVSS
  polyreactivity (PSR sort gate): low polyreactivity

## QVQLVESGGGLVQAGGSLRLSCAASGSIYLYAMGWYIQAPGKERELVADISFSDGSTYYADSVKGRFTISRDNAKNTVYLQMNSLKPEDTAVYYCAAGVWHHASWDFLEYYYWGQGTQVTVSS
  polyreactivity (PSR sort gate): low polyreactivity

## QVQLVESGGGLVQAGGSLRLSCAASGFIFRYYAMGWYRQAPGKERELVAAISRSGGSTYYADSVKGRFTISRDNAKNTVYLQMNSLKPEDTAVYYCNKDPRGRIPVPGTWIMDYWGQGTQVTVSS
  polyreactivity (PSR sort gate): high polyreactivity

## QVQLVESGGGLVQAGVRLRLSCAASGFTFAGTAMGWYRQAPGKERELVAAITSGGSTYYADSVKGRFTISRDNAKNTVYLQMNSLKPEDTAVYYCAALVFRGRSFTHDYWGQGTQVTLSS
  polyreactivity (PSR sort gate): high polyreactivity

## QVQLVESGGGLVQAGGSLRLSCAASGSIFYRNAMGWYRQAPGKERELVAAISRGGSTNYADSVKGRFTIERDNAKNTVYLQMNSLKPEDTAVYYCNALYHGDYDYWGQGTQVTVSS
  polyreactivity (PSR sort gate): high polyreactivity

## QVQLVESGGGLVQAGGSLRLSCAASGLIFYYYSMGWYRQAPGKERELVAAISGGGSTYYADSVKGRFTISRDNAKNTVYLQMNSLKPEDTAVYYCAADTRTSYYKDDYDYWGQGTQVTVSS
  polyreactivity (PSR sort gate): low polyreactivity

## QVQLVESGGGLVQAGGSLRLSCAASGITFYKNVMGWYRQAPGKERELVAAISSSGGSTYYADSVKGRFTISRDNAKNTVYLQMNSLKPEDTAVYYCAADEDDVVSGFLRYFYVAYYYWGQGTQVTVSS
  polyreactivity (PSR sort gate): low polyreactivity

## QVQLVESGGGLVQAGGSLRLSCAASGRTCKPYAMGWYRQAPGKEREVVAVITSNGSSTYYADSVKGRFTISRDNAKNTVYLQMNSLKPEDTAVYYCATKLTYTLTSGAYAYDYWGQGTQVTVSS
  polyreactivity (PSR sort gate): low polyreactivity

## QVQLVESGGGLVQAGGSLRLSCAAYGITFYLYAMGWYIQAPGKERELVAAITSSGGSTYYADSVKGRFTISRDNAKNTVYFQMNSLKPEDTAVYYCNALYFSQDRYDYWGQGTQVTVSS
  polyreactivity (PSR sort gate): high polyreactivity

## QVQLVESGGGLVQAGGSLRLSCAASGSTSLYNMGWSRQAPGKERELVAAIDSGSTNYADSVKGRFTISRDNAKNTVYLQMNSLKPEDTAVYYCAADGTNIGVYDRASYRDDYWGQGTQVTVSS
  polyreactivity (PSR sort gate): low polyreactivity

## QVQLVESGGGLVQAGGSLRLSCAASGIIFRRYAMGWYRQAPGKEREFVAAIRYTGGGTYYADSVKGRFTISRDNAKNTVYLQMNSLKPEDTAVYYCAARDRDTRNYYWGQGTQVTVSS
  polyreactivity (PSR sort gate): high polyreactivity

## QVQLVESGGGLVQAGGSLRLSCAASGNTFRVYTMGWYRQAPGKERELVAAINSSGRTNYADSVKGRFTISRDNAKNTVYLLMNCLKPEDTAVYYCAADYYQWSTFLGVYEYAYWGQGTQVTVSS
  polyreactivity (PSR sort gate): low polyreactivity

## QVQLVESGGGLVQAGGSLRLSCAASGRIFRYYAMGWYRQAPGKERELVAAITRGGSTNYADSVKGRFTISRDNAKNTVYLQMNSLKPEDSAVFYCATRESCYPRWMDYWGQGTQVTVSS
  polyreactivity (PSR sort gate): high polyreactivity

## QVQLVESGGGLLKEGGSLRLICAASGRIFVGYDMGWYRQEPGKERELVAAISSDGGSTYYSDSVKGRFTISRDNAKNTVYLQMNSVKPEDTAFYYCAADDFSTVEYDYWGQGTQVNVSS
  polyreactivity (PSR sort gate): low polyreactivity

## QVQLVESGGGLVQAGGSLRLSCAASGRIFQQYAMGWYRQAPGKEREVVAAISRGGSTYYADSVKGRFTISRDNAKNTVYLQMNSLKPEDTAVYYCAVRSRRGLKYDYWGQGTQVTVSS
  polyreactivity (PSR sort gate): high polyreactivity

## QVQLVESGGGLVQAGGSLRLSCAASGRTFGSYTMGWYRQAPGKERELVAAITSGGRTNYADSVKGRFTLSRDNAKNTVYLQMTSLKPEATAVYYCAAGLRGGRYRYFAYDYWGQGTQVTVSS
  polyreactivity (PSR sort gate): high polyreactivity

## QVQLVESGGGLVQAGGSLRLSCAASGRTLGFYAMGWYRQAPGKEREFVAAISSSVGRTYYADSVKGRFTISRDNAKNTVYLQMNSLKPEDTAVYYCAADRTDTSNYWGQGTQVTVSS
  polyreactivity (PSR sort gate): high polyreactivity

## QVQLVESGGGLVQAGGSLRLSCAASGSTFPFYAMGWYRQAPGKERELVAAITSGGSTYADSVKGRFTISRDNAKNTVYLQMNSLNPEDTAVYYCAASWPRWWRFGYWGQGTQVTVSS
  polyreactivity (PSR sort gate): low polyreactivity

## QDQLVESGGGLVQAGGSLRLSCAASGNTFTVNAMGWYRQAPGKERELVATINSTGGSTYYADSVKGRFTISRDNAKNTVYLQMNSLKPEDPAVYYAGSSNSFAFGGYDYWGQGTQVTVSS
  polyreactivity (PSR sort gate): low polyreactivity

## QVQLVESGGGLVQAGGSLRLSCAASGFIFYYYDMGWYRQAPGKERELVAAISTGGSTYYADSVKGRFTISRDNAKNTVYLQMNSLKPEDTAVYYCAADSYWSPYDYWGQGTQVTVSS
  polyreactivity (PSR sort gate): high polyreactivity

## QVQLVESGGGLVQAGGSLRLTCAASGLTFEYYAMGWYRQAPGKERELVARISKSGVGTNYADSVKGRFTISRDHAKNTVYLQMNSLKPEDNAVYSCAARKYHYGYGYWGQGTQVTVSS
  polyreactivity (PSR sort gate): high polyreactivity

## QVQLVESGGGLFQAGGSLRLSCAASGSTFTTNAMGWYRQAPGKERELVAAITKRGGTTSYADSVKGRFTISRDNAKNSVYLLMNSLKPADTAVYYCAADVEVSWAYDAWWYGGGYYWGQCTQVTVSS
  polyreactivity (PSR sort gate): high polyreactivity

## QGQLVESGGGLVQAGGSLRLSCAASGFSFQYYAMGWSRHAHGKERELVAAINRGGGTHYADSVKGRFTISRDNAKNTVYFQMHSLKPEDTAVYYCNKVYYWPGSRPSRYEYWGQGTQVTVSS
  polyreactivity (PSR sort gate): low polyreactivity

## QVQLVESGGGLVQAGGSLRLSCAASGSIFLDYAMGWYRQAPGKERELVAGITISGGSTYYADSVKGRFTISRDNAKNTVYLQMNSLKPEDTAVYYCAKVAPRSSSSQEYYYWGQGTQVTVSS
  polyreactivity (PSR sort gate): low polyreactivity

## QVQLVESGGGLVQAGGSLRLSCAASGSTFRYYSMGWYRQAPGKERELVAAITYRGGRTYYADSVKGRFTISRDNAKNTDYLQKNSLKPEDTAVYYCAAKSGRHSMDSSGQGTQVTVSS
  polyreactivity (PSR sort gate): low polyreactivity

## QVQLVESGGGLVQAGGSLRLSCAASGFTFNGYAMGWYRQAPGKERELVAGITRRGGITYYADSVKGRFTISRDNAKNTVYLQMNCLKPEDTAVYYCARDYIGHALIHHASLYYYWGQGTQVTVSS
  polyreactivity (PSR sort gate): high polyreactivity

## QVQHVESGGGLVQAGASLRLSCAASGTTFIGYERGRSRQAPGKVRELVAAISYSDGTYYADSVKGRFTISRENAKNTVYLQMNSLKPEDTAVYYCAADSLFYRYDYWGQGTQVTVSS
  polyreactivity (PSR sort gate): low polyreactivity

## QVQLVESGGGLVQAGGSLRLSCAASGSTFTFYTMGWYRQAPGKERELVAAITISAGSTYYADSVKGRFTFSRDNAKNTVYLQMNSLKPEDSAVYYCAADTYAHWGYYGSYYRDDYWGQGTQVTVSS
  polyreactivity (PSR sort gate): low polyreactivity

## QVQLVESGGGLVQAGGSLRLSCAASGSTFYGYGMGWYRQAPGKEWELVAAITGSGDTTYYADSVKGRFTISRDNAKNTVYLQMNSLKPEDTAVYYCNARWHAEYDYWGQGTQVTVSS
  polyreactivity (PSR sort gate): low polyreactivity

## QVQLVESGGGLVQAGGSLRLSCAASGRTYKINAMGCYRQAPGKERELVASISRTGGTTYYADSVKGRFTNSRDNAKNTVYLQMNSLNPEDTAVYYCAVSDFGLLDCLTIYDEYDYWGQGTQVTVSS
  polyreactivity (PSR sort gate): high polyreactivity

## QVQHVESGGGLVQAGGSLRLSCAASGSIFYVYAMGWYRQAPGKERELVASINKSGGSTYYADSVKGRFTISRDNAKNTVYLQMNSLKPEDTAVYYCAARTGWPRVGFQYPAHVGFDYWGQGTQVTVSS
  polyreactivity (PSR sort gate): low polyreactivity

## QDQLVESGGGLVQAGGSLRLSCAASGSTFNIYAMGWYRQAHGTVRELVARITSGGSTNYADSVKGRFTISRDNAKNTVYLQMKSLKPEDTAVYYCAARLKWGLPTYDYWGQGTQVTVSS
  polyreactivity (PSR sort gate): high polyreactivity

## QVQLVESGGGLVQAGGSLRLSCAASGFTFLSNAMGWYRQAPGKERELVATINSGGSTNYADSVKGRFTISRDNAKNTVYLQMNSLKPEDTAVYYCAAKLWRYYHYDYWGQGTQVTVSS
  polyreactivity (PSR sort gate): low polyreactivity

## QVQHVESGGGLVQAGGSLRLSCAASGRTFVYYVMGWYRQAPGKESELVAAITGSGDSTYYADSVKGRFTISRDNAKNNVYLQMNSLKPEDTAVYYCAARRGTRYYDFGYYYWGQGTKVTVSS
  polyreactivity (PSR sort gate): high polyreactivity

## QVQLVESAGGLVQEGGSLRLSCAASGRTFYNAMGGYRQAPGKERELVAAISANGGSTTYADSVKGRFTISRDNAKNTVYLQMNSLKPEDTAVYYCNTYYWYSGSPYDYWGQGTQVTVSS
  polyreactivity (PSR sort gate): low polyreactivity

## QVQLVESGGGLVQAGGSLRLSCAASGRTFDRNAMGWYRKAPGKERELVARITIDGSTNYADSVKGRFTISRDNAKNTVYLQMNSLKPEDTGVYYCAAYSASYGGYDYWGQGTQVTVSS
  polyreactivity (PSR sort gate): high polyreactivity

## QVQLVESGGGLVQAGGSLRLSCAASGRTFYGYAMGWYRQAPGKERELVASISRDGSTNYADSVKGRFTISRDNAKNTVYLQMNSLKPEDTAVYYCAGDIWYYRYPIYYYSYDYWGQGTQVTVSS
  polyreactivity (PSR sort gate): low polyreactivity

## QVQLVESVGGLVQAGGSLRLSCAASGRIFGYNAMGWYRQAPGKEWELVAGITSVGRTYYADSVNGRFTISRDNAKNTVYLQMNSLKPEDTAVYYCNAASYSLAVTAEFEDMDYWGQGTQVTVSS
  polyreactivity (PSR sort gate): low polyreactivity

## QVQLVESGGGLVQAGGSLRLSCAASGFIFWQYAMGWYRQAPGKERELVAAITSRGGSTYYADSVKGRFTISRDNAKNTVYLKMNSLKPEDTAVYYCARLYPRHLNGDYWGQGTQVTVSS
  polyreactivity (PSR sort gate): high polyreactivity

## QVQLVESGGGLVQAGGSLRLSCAASGFTFPLNAMGWYRQAPGKERELVAAITNGGTTYYADSVKGRFTISRDNAKNTVYLQMNSLKPEDTAVYYCNAQATPYEGRYDESEYDYWGQGTQVTVSS
  polyreactivity (PSR sort gate): low polyreactivity

## QVQLVESGGGLVQAGGSLRLSCAASGRTFGRNAMGWYRQAPGKERELVAAITWSGGSTYYADSVKGRFTISRDNAKNTVYLQMNSLKPEDTAVYYCAADRSRWGQGTQVTVSS
  polyreactivity (PSR sort gate): high polyreactivity

## QVQLVESGGGLVQAGGSLRLSCAASGSTFYYYAMGWYRQAPGKERELVATIDSGTSTYYADSVKGRFTISRDNAKNTVYLQMISLKPEDTAVYYCAAKTWSWSYGYNYWGQGTQVTVSS
  polyreactivity (PSR sort gate): low polyreactivity
